Patent US20230408521A1

Experiments:
[1] = molecular target: recombinant mature human GDF-15 protein (as expressed in Baculovirus-transfected HighFive insect cells) (human) (UniProt Q99988); assay: SPR (Biorad ProteOn XPR36), KD=koff/kon
[2] = molecular target: recombinant mature human GDF-15 protein (as expressed in Baculovirus-transfected HighFive insect cells) (human) (UniProt Q99988); assay: SPR (Biorad ProteOn XPR36, GLC chip), GDF-15 immobilised, antibody as analyte, 1:1 Langmuir fit, 25 C
[3] = molecular target: recombinant mature human GDF-15 protein derived from expression in E. coli (human) (UniProt Q99988); assay: SPR (Biorad ProteOn XPR36), E. coli GDF-15 immobilised, antibody as analyte

Kd [1]: 0.79 nM
koff [2]: 0.00043 s⁻¹
kon [2]: 540000 M⁻¹ s⁻¹
deviation of rate constants against GDF-15 derived from insect cells [3]: 45%
fold difference of affinity values against GDF-15 derived from insect cells [3]: < 2 fold
Substance: monoclonal anti-human GDF-15 mAb-B1-23 (antibody)
